Source: article PMC7884711, “Identification of efficient prokaryotic cell-penetrating peptides with applications in bacterial biotechnology” (Communications Biology, 2021)
Where two headings read alike, the source gives them in different places. Where no end group is shown, it is not given here.

Tests used:
Type in all cases: cell-based, Escherichia coli
[1] = system: E. coli DH5α cells; assay: Penetration efficiency of TAMRA-labeled CPPs, electroporation-based method, flow cytometry; conditions: for Penetration efficiency (TAMRA fluorescence in E. coli): library CPPs, electroporation, Tris buffer pH 7.5, 1 h, mean of n = 3–5; for Cell penetration efficiency (TAMRA fluorescence), Electrooration - Tris buffer / Cell penetration efficiency (TAMRA fluorescence), Electrooration - DW: electrocompetent E. coli DH5α, 5 μg TAMRA-CPP, electroporation 1.8 kV; for Cell penetration efficiency (TAMRA fluorescence), Electrooration - Tris buffer: 20 mM Tris-HCl pH 7.5, 1 h; for Cell penetration efficiency (TAMRA fluorescence), Electrooration - DW: distilled water, 1 h
Source text: (§1) (Fig. 2a). […] First, we prepared electrocompetent and chemically competent cells.

[2] = system: E. coli DH5α cells; assay: Inhibition of bacterial cell growth by CPPs (Max OD600 relative to control); conditions: for Max OD (%) (Figure 3f): E. coli DH5α diluted 1/1000 in LB, 5 μg TAMRA-CPP (0.1 μg/μL), OD600 monitored 18 h, max OD of treated cells / max OD of control cells; for Growth rate (%): E. coli growth with CPP, relative to control; for Max OD (%): library CPPs, E. coli growth to stationary phase, relative to non-CPP-treated control, mean of n = 3
Method: E. coli DH5α cells were grown until OD600 = 1 at 37 °C with shaking at 200 rpm. […] Then, cell growth (OD600) was monitored for 18 h by using the Synergy^TM H1 hybrid multi-mode microplate reader (BioTek, Vermont, USA). As a control, we used E. coli cells that were not treated with CPPs.

[3] = system: E. coli DH5α cells; assay: Penetration efficiency of TAMRA-labeled CPPs, chemical (CaCl2) treatment method, flow cytometry; conditions: for Cell penetration efficiency (TAMRA fluorescence), Chemical (CaCl2) method - Tris buffer / Cell penetration efficiency (TAMRA fluorescence), Chemical (CaCl2) method - DW: 50 mM CaCl2-treated E. coli DH5α, 5 μg TAMRA-CPP; for Cell penetration efficiency (TAMRA fluorescence), Chemical (CaCl2) method - Tris buffer: 20 mM Tris-Cl pH 7.5, 1 h; for Cell penetration efficiency (TAMRA fluorescence), Chemical (CaCl2) method - DW: 5 × 10^7 cells/50 μL, distilled water, 1 h; for Penetration efficiency (TAMRA FI): TAMRA fluorescence intensity in E. coli, library screen of 98 CPPs
Source text: as §1

[4] = class (Cytotoxic / Safe), cutoff of 50%

| Substance | Penetration efficiency (TAMRA fluorescence in E. coli) [1] [A.U.] | Max OD (%) (Figure 3f) ([2]; replicate 1) | Max OD (%) (Figure 3f) ([2]; replicate 2) | Max OD (%) (Figure 3f) ([2]; replicate 3) | Growth rate (%) [2] [%] | Anti-bacterial activity [2, 4] | Max OD (%) [2] [%] | also measured |
| --- | --- | --- | --- | --- | --- | --- | --- | --- |
| CTP (GGRRARRRRRR; also: TAMRA label, site not given here) [CPP 96, TAMRA-labeled CPP of the 98-CPP library] | 3688.0 | 80.7143 | 88.7755 | 86.7347 | 85.4082 | Safe | 85.4 | – |
| Penetratin (RQIKIWFPNRRMKWKK; also: TAMRA label, site not given here) [CPP 17, TAMRA-labeled CPP of the 98-CPP library, one of five used to evaluate delivery methods] | – | – | – | – | 56.8825 | – | – | Cell penetration efficiency (TAMRA fluorescence), Chemical (CaCl2) method - Tris buffer ([3]; replicate 1): 29.4497 A.U.; Cell penetration efficiency (TAMRA fluorescence), Chemical (CaCl2) method - Tris buffer ([3]; replicate 2): 24.3955 A.U.; Cell penetration efficiency (TAMRA fluorescence), Chemical (CaCl2) method - Tris buffer ([3]; replicate 3): 28.6202 A.U.; Cell penetration efficiency (TAMRA fluorescence), Chemical (CaCl2) method - DW ([3]; replicate 1): 134.244 A.U.; Cell penetration efficiency (TAMRA fluorescence), Chemical (CaCl2) method - DW ([3]; replicate 2): 173.67 A.U.; Cell penetration efficiency (TAMRA fluorescence), Chemical (CaCl2) method - DW ([3]; replicate 3): 170.238 A.U.; Penetration efficiency (TAMRA FI) [3]: 647.56; Cell penetration efficiency (TAMRA fluorescence), Electrooration - Tris buffer ([1]; replicate 1): 794.592 A.U.; Cell penetration efficiency (TAMRA fluorescence), Electrooration - Tris buffer ([1]; replicate 2): 585.819 A.U.; Cell penetration efficiency (TAMRA fluorescence), Electrooration - Tris buffer ([1]; replicate 3): 1028.54 A.U.; Cell penetration efficiency (TAMRA fluorescence), Electrooration - Tris buffer ([1]; replicate 4): 181.291 A.U.; Cell penetration efficiency (TAMRA fluorescence), Electrooration - DW ([1]; replicate 1): 634.038 A.U.; Cell penetration efficiency (TAMRA fluorescence), Electrooration - DW ([1]; replicate 2): 587.6 A.U.; Cell penetration efficiency (TAMRA fluorescence), Electrooration - DW ([1]; replicate 3): 471.96 A.U.; Anti-bacterial activity [2]: Safe |
| Tat48-57 (GRKKRRQRRR; also: TAMRA label, site not given here) [CPP 70, TAMRA-labeled CPP of the 98-CPP library] | 4043.3 | 81.1065 | 82.6722 | 78.7056 | 80.8281 | Safe | 80.8 | – |
| Tat49-57 (RKKRRQRRR; also: TAMRA label, site not given here) [CPP 45, TAMRA-labeled CPP of the 98-CPP library] | 2837.5 | 75.4515 | 62.3077 | 70.8361 | 69.5318 | Safe | 69.5 | – |
| Tat (GRKKRRQRRRPPQRKC; also: TAMRA label, site not given here) [CPP 67, TAMRA-labeled CPP of the 98-CPP library] | 2821.8 | 60.9603 | 54.071 | 61.2735 | 58.7683 | Safe | 58.8 | – |
| TatsMTS (TMG) (GRKKRRQRRRMVSAL; also: TAMRA label, site not given here) [CPP 71, TAMRA-labeled CPP of the 98-CPP library] | 3266.3 | 73.904 | 87.9958 | 80.3758 | 80.7585 | Safe | 80.8 | – |
| rrrrrrrrrcqcrrkn [CPP 80] | – | 65.3033 | 60 | 55.5286 | 60.2773 | Safe | – | Penetration efficiency (TAMRA FI) [3]: 1432.29 |
